Test results published in PMC5716589, “The nucleoid as a scaffold for the assembly of bacterial signaling complexes” (PLoS Genetics, 2017).

T1: FrzCD-(His)6 (Myxococcus xanthus, UniProt P43500 1-417)
T1 sequence: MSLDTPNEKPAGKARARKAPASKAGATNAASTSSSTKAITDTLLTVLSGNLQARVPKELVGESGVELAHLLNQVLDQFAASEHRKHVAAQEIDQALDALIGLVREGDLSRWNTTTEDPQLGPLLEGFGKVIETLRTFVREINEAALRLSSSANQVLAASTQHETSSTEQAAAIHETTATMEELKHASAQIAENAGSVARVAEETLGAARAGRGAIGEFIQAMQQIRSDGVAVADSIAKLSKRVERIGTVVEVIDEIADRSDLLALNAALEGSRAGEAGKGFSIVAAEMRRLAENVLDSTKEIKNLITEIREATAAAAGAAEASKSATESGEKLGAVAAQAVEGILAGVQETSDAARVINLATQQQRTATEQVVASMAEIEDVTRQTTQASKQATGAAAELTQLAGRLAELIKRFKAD

B1: C-terminal-tagged FrzCD-(His)6 (receptor, Myxococcus xanthus, UniProt P43500 1-417, looked up)
chain: T1 sequence
notes: FrzCD, cytoplasmic chemoreceptor (MCP) of the Frz chemosensory system of Myxococcus xanthus; the names of the deletion mutants (Δ131–417) imply 417 residues; also called FrzCD-H6; 6His-FrzCD (as called in the results for this experiment); source: E. coli BL21-AI, purified (HisTrap FF, MonoQ ion exchange)
B2: Oligo70 (dsDNA)
DNA 1: CTTGCAGTAGAGCTGACCATGATTACGCCATCAGCAGCTCCAGGTCGTACCTCCAGCTACCAATCCCCG
DNA 2: CGGGGATTGGTAGCTGGAGGTACGACCTGGAGCTGCTGATGGCGTAATCATGGTCAGCTCTACTGCAAG

Tests used:
[1] = target: the molecule itself; experiment: SEC-MALS; 100 μl of 2 mg/ml (45 μM) FrzCD injected on a BioRad EnRich650 column in 50 mM Tris, 50 mM NaCl, pH 8.0, 0.4 ml/min; Wyatt Dawn Heleos II, Debye model
FrzCD-(His)6 = target: T1, FrzCD-(His)6; experiment: EMSA; 300 nM DNA; EMSA Fig 3: 10 mM Tris-HCl pH 8, 60 mM NaCl, 10% glycerol, 4 C, 40 min; EMSA S4 Fig: 50 mM Tris pH 7.4, 50 mM NaCl, 1 mM DTT, 10% glycerol, 25 C, 20 min; BLI: PBS pH 7.5, 0.001% Tween-20, 25 C (6His-FrzCDΔ1-130 used as reference subtraction); conditions: protein: recombinant; tags: C-terminal 6His; chain copies: 2; blunt

Row | Binder | stoichiometry N [1] | binding result (FrzCD-(His)6)
1 | B1 | 2 | –
2 | B2 | – | binds
